Data published in publication PMC5473870, “Crystal structure of the DNA-binding domain of Myelin-gene Regulatory Factor” (Scientific Reports, 2017).

B1: MyRF DBD core (proteolytically resistant, after limited proteolysis with trypsin) (domain or fragment, mouse)
chain: IKWQPHQQNKWATLYDANYKELPMLTYRVDADKGFNFSVGDDAFVCQKKNHFQVTVYIGMLGEPKYVKTPEGLKPLDCFYLKLHGVKLEALNQSINIEQSQSDRSKRPFNPVTVNLPPEQVTKVTVGRLHFSETTANNMRKKGKPNPDQRYFMLVVALQAHAQNQNYTLAAQISERIIVRAS
modifications: selenomethionyl substituted in the crystals (4 Se per molecule)
notes: Myelin-gene Regulatory Factor (MyRF), mouse, NP_001028653.1; trypsin-resistant core of about 24 kD, 210 residues, made from the expressed fragment 351-717; PDB 5H5P holds the crystallised chain; also called MyRF DBD core only; MyRF DBD (crystal structure); source: E. coli BL21 (DE3), nickel-sepharose, limited proteolysis with trypsin, purified (Superdex-75)
B2: MyRF DBD after auto-cleavage (351–586 plus N-terminal his tag and linker) (domain or fragment, mouse, UniProt Q3UR85-3 351-586, looked up)
chain: IKWQPHQQNKWATLYDANYKELPMLTYRVDADKGFNFSVGDDAFVCQKKNHFQVTVYIGMLGEPKYVKTPEGLKPLDCFYLKLHGVKLEALNQSINIEQSQSDRSKRPFNPVTVNLPPEQVTKVTVGRLHFSETTANNMRKKGKPNPDQRYFMLVVALQAHAQNQNYTLAAQISERIIVRASNPGQFESDSDVLWQRAQLPDTVFHHGRVGINTDRPDEALVVHGNVKVMGSLMHP
notes: Myelin-gene Regulatory Factor (MyRF), mouse, NP_001028653.1; N-terminal product (351-586) of auto-cleavage of the expressed fragment 351-717 (DBD and ICA); also called wild type MyRF DBD; source: E. coli BL21 (DE3), expressed as fragment 351-717, auto-cleaved, purified (nickel-sepharose); not shown: His6, N-terminal, kept

Target: the molecule itself
Test: SEC; gel filtration on Superdex-200, 20 mM Tris-HCl pH 7.4, 50 mM NaCl, 5% glycerol; calibrated with ferritin, BSA and ovalbumin

Protein	stoichiometry N
B1	3
B2	3
